The target in assay [1] is wild type human KIT on cells (TF-1, Ba/F3-KIT, UT-7/EPO) (human) (UniProt P10721). Nature of the assay: cell-based or functional assay.
Assay [2] addresses T1, recombinant soluble human KIT extracellular domain (KIT-ECD), C-terminal 6His tag (human, UniProt P10721 26-509, biotinylated in the yeast display assays (sites not given)).
T1 construct: range 26-509; Made in High Five insect cells with a baculovirus, purified on Ni-NTA; major protein of 60 kD; Monovalent; also called c-KIT ECD; recombinant KIT
Put plainly: flow cytometry of yeast displaying the scFv with biotinylated KIT-ECD, streptavidin-PE.

The target of assay [3] is T1, recombinant soluble human KIT …. Nature of the assay: soluble scFv ELISA on KIT-ECD.
Assay [4] deals with T2, human KIT V560G D816V as expressed on HMC1.2 mastocytoma cells (human, UniProt P10721 26-976).
T2 construct: whole, on cells; also called endogenous KIT on HMC1.2
Put plainly: FACS on HMC1.2 cells, soluble scFv from concentrated bacterial supernatant, detected with anti-c-myc and anti-mouse Ig-PE [panel D].
Procedure: (D) FACS analysis of scFv binding to HMC1.2 cells. ScFvs were induced with IPTG 1 mM overnight at 25° C. from TG1 bacterial containing pHEN phagemid. Supernatant was collected, concentrated on Amicon ultra-4 centrifugal units and incubated with HMC1.2 cells at 4° C. ScFv binding to cells was detected with an anti-c-myc antibody and anti-mouse immunoglobulins conjugated to phycoerythrin. Fluorescence was measured by FACS.
Two hundred thousand HMC1.2 cells were resuspended in 100 μL of PBS-1% FBS at 4° C. (FACS buffer). One hundred μL of culture supernatant was added to the cells during 2 hours at 4° C. Cells were washed with FACS buffer and scFv binding to cells was detected with an anti-c-myc antibody (9E10; Sigma) followed by goat anti-mouse immunoglobulins (Ig) conjugated to PE (Beckton Dickinson).

For orientation: Kd means the equilibrium constant for the complex coming apart.

T1 sequence (P10721 other isoform, or with tags, fused parts or gaps limits assumed): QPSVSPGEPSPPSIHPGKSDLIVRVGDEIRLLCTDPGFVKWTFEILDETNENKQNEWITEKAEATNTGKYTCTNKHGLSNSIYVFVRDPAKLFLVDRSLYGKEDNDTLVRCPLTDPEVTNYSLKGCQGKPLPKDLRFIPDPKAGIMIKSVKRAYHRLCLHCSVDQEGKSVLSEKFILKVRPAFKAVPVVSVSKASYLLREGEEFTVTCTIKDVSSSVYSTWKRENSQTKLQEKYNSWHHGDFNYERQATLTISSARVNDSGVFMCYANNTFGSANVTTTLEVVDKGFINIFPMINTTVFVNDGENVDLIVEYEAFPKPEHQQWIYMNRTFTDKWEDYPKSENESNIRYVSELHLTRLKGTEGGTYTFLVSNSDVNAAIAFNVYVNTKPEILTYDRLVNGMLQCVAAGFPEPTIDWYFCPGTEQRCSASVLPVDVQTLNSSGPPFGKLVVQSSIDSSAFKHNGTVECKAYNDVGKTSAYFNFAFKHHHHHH
T2 sequence (P10721 26-976 V560G/D816V): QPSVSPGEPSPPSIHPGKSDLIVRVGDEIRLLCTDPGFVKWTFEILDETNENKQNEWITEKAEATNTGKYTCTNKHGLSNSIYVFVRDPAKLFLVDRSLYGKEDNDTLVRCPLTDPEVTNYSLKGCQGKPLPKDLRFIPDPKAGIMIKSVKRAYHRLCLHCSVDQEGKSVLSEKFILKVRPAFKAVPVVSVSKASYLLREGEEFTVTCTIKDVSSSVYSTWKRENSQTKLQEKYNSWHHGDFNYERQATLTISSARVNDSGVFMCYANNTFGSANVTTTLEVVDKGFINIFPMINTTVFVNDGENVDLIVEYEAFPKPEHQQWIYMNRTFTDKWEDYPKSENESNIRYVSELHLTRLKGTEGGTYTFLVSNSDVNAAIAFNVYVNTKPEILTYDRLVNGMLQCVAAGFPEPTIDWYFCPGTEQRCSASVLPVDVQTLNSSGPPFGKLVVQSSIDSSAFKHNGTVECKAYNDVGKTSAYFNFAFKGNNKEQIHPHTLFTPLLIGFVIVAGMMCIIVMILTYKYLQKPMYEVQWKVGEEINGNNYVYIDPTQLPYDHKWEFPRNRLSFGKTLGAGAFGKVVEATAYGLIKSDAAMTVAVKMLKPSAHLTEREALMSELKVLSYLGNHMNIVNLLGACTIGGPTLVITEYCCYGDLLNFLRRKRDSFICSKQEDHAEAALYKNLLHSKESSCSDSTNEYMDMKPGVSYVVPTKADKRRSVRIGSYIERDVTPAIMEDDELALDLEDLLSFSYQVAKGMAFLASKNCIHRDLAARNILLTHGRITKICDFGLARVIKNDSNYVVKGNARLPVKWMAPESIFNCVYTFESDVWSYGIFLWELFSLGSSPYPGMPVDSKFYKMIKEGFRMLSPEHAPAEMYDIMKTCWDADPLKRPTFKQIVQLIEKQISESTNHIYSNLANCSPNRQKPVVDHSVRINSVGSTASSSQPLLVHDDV
wild type human KIT on cells (TF-1, Ba/F3-KIT, UT-7/EPO) (human), sequence (P10721 26-976): as the sequence (P10721 26-976 V560G/D816V) above, with G535V, V791D counted along it

Turning to “mouse SCF in CHO-KL culture supernatant (from UniProt P20826 26-190) (ligand)”, the KIT surface down-regulation on UT-7/EPO cells after 1 hour (FACS with 104D2) in assay [1] is 70%.

B1: affinity matured scFv-2D1C7 displayed on yeast (scFv)
chain: MAQVKLQESGGGLVQPGGSLRLSCAASGFTFDSYAMSWVRQAPGKGLEWVSYITSSSSTIYYVDSVKGRFTISRDNAKNSLYLQMNSLRDEDTAVYYCARLRNSEGYWYFDLWGRGTLVTVSSGGGGSGGGGSGGGGSQSVLTQDPAVSVALGQTVRITCQGDSLRSYYASWYQQKPGQAPLLVMYGENIRPSGIPDRFSGSTSGNSASLTITGAQAEDEADYYCNSRDSSGNHLNWVFGGGTKLTVLG
Take B1: the Kd in assay [2] was 4.2 nM.

B2: affinity matured scFv-3G1A2 displayed on yeast (scFv)
chain: MAQVQLVESWGGVAQPGRSLRLSCAASGFTFSSFAMHWVRQAPGKGLEWVAVTSYDGSNEYYADSVKGRFTISRDNSKNTLYLQMNSLRAEDTAVYYCAKAMVRGVTFGDLDYWGQGTLVTVSSGGGGSGGGGSGGGGSSELTQDPAVSVALGQTVRKTCQGDSLKSYYASWYQQKPGQAPVLVIYGENSRPSGIPDRFSGSSSGNTASLTITGAQAEDEADYYCCSRATGGYHRIFGGGTKLTVLG
As to B2, in assay [2], the Kd turned out to be 1.7 nM.

B3: scFv 3G1, soluble monovalent scFv (scFv)
scFv: MAQVQLVESWGGVAQPGRSLRLSCAASGFTFSSFAMHWVRQAPGKGLEWVAVTSYDGSNEYYADSVKGRFTISRDNSKNTLYLQMNSLRAEDTAVYYCAKAMVRGVTFGDLDYWGQGTLVTVSSGGGGSGGGGSGGGGSSELTQDPAVSVALGQTVRITCQGDSLRSYYASWYQQKPEQAPVLVIYGENSRPSGIPDRFSGSSSGNTASLTITGAQAEDEADYYCNSRDSSGTHLRVFGGGTKLTVLG
notes: Expressed from phagemid pHEN in E. coli TG1, used as culture supernatant
As for B3, the binding result in assay [3] and in assay [4] was “binds” in each case.

B4: scFv 2D1, soluble monovalent scFv (scFv)
scFv: MAQVKLQESGGGLVQPGGSLRLSCAASGFTFDSYAMSWVRQAPGKGLEWVSYITSSSSTIYYVDSVKGRFTISRDNAKNSLYLQMNSLRDEDTAVYYCARLRNSEGYWYFDLWGRGTLVTVSSGGGGSGGGGSGGGGSQSALTQDPAVSVALGQTVRITCQGDSLRSYFASWYQQKPGQAPLLVMYGQNIRPSGIPDRFSGSSSGNSASLTITGAQAEDEADYYCNSRDSSYNHWVFGGGTKLTVLG
notes: as for B3
As for B4, the binding result in assay [3] and in assay [4] was “binds” throughout.

The record behind these values is patent publication US20160264680A1 (INSERM INSTITUT NATIONAL DE LA SANTE ET DE LA RECHERCHE …, published 2016).
